{"source": "paper PMC6949489", "about": "“Glutathione peroxidase 8 negatively regulates caspase‐4/11 to protect against colitis” (EMBO Molecular Medicine, 2019)", "biological_target": "the molecule itself", "experiment": "native gel or EMSA; blue native PAGE (3-12%) and immunoblot; purified caspase-4 (C258S) incubated with or without oxidized GPx8 30 min at 4°C, then with different amounts of LPS 30 min at 37°C; LPS-induced oligomerization", "data": [{"protein": "FLAG-tagged human caspase-4 (C258S) protease-deficient mutant (natural protein, UniProt P49662 1-377, looked up, human caspase-4 with the protease-deficient mutation C258S; also called Casp4C258S; source: 293T, transfected, in lysate) MAEGNHRKKPLKVLESLGKDFLTGVLDNLVEQNVLNWKEEEKKKYYDAKTEDKVRVMADSMQEKQRMAGQMLLQTFFNIDQISPNKKAHPNMEAGPPESGESTDALKLCPHEEFLRLCKERAEEIYPIKERNNRTRLALIICNTEFDHLPPRNGADFDITGMKELLEGLDYSVDVEENLTARDMESALRAFATRPEHKSSDSTFLVLMSHGILEGICGTVHDEKKPDVLLYDTIFQIFNNRNCLSLKDKPKVIIVQASRGANRGELWVRDSPASLEVASSQSSENLEEDAVYKTHVEKDFIAFCSSTPHNVSWRDSTMGSIFITQLITCFQKYSWCCHLEEVFRKVQQSFETPRAKAQMPTIERLSMTRYFYLFPGN", "values": [{"measurement": "binding result", "value": "binds"}]}]}
